In the DeepSol protein solubility set:

Assay: soluble on expression in E. coli; label from the status in PepcDB or PDB records

| Sequence | soluble on expression in E. coli |
| --- | --- |
| MAPSTPLLTVRGSEGLYMVNGPPHFTESTVFPRESGKNCKVCIFSKDGTLFAWGNGEKVNIISVTNKGLLHSFDLLKAVCLEFSPKNTVLATWQPYTTSKDGTAGIPNLQLYDVKTGTCLKSFIQKKMQNWCPSWSEDETLCARNVNNEVHFFENNNFNTIANKLHLQKINDFVLSPGPQPYKVAVYVPGSKGAPSFVRLYQYPNFAGPHAALANKSFFKADKVTMLWNKKATAVLVIASTDVDKTGASYYGEQTLHYIATNGESAVVQLPKNGPIYDVVWNSSSTEFCAVYGFMPAKATIFNLKCDPVFDFGTGPRNAAYYSPHGHILVLAGFGNLRGQMEVWDVKNYKLISKPVASDSTYFAWCPDGEHILTATCAPRLRVNNGYKIWHYTGSILHKYDVPSNAELWQVSWQPFLDGIFPAKTITYQAVPSEVPNEEPKVATAYRPPALRNKPITNSKLHEEEPPQNMKPQSGNDKPLSKTALKNQRKHEAKKAAKQEARSDKSPDLAPTPAPQSTPRNTVSQSISGDPEIDKKIKNLKKKLKAIEQLKEQAATGKQLEKNQLEKIQKETALLQELEDLKLGI | soluble |
| MAAAVFHMEILQLNDLSSRLNPLATKNVVLHVCLGVRYFPNSACKSYKDAQALCKDGDGMSLTGPAQSMEKAFFKESVPKVDKCVIFLDGLALNHDEPYNFEFEDETHDGTKNYRFNSEDPNSQTAPNYIVFEYHVSGAHVFDRS | not soluble |
| MKVGYLGPAATFTHLAVSSCFQNGAEHVAYRTIPECIDAAVAGEVDFAFVPLENALEGSVNLTIDYLIHEQPLPIVGEMTLPIHQHLLVHPSRENAWKELDKIYSHSHAIAQCHKFLHRHFPSVPYEYANSTGAAAKFVSDHPELNIGVIANDMAASTYELKIVKRDIQDYRDNHTRFVILSPDENISFEVNSKLSSRPKTTLMVMLPQDDQSGALHRVLSAFSWRNLNLSKIESRPTKTGLGHYFFIIDIEKAFDDVLIPGAMQELEALGCKVRLLGAYQSYQLMAGDPLEHHHHHH | not soluble |
| MRSDTSVEPEGANFIAEFFGHRVYPEVVSTEAARNDQATGTCPFLTAAKLVETSCVKAETSRGVCVVNTAVDNERYDWLVCPNRALDPLFMSAASRKLFGYGPTEPLQFIAAPTLADQAVRDGIREWLDRGVHVVAYFQEKLGGELSISKTDSSPEFSFDWTLAEVESIYPVPKIKRYGVLEIQTMDFHGSYKHAVGAIDIALVEGIDFHGWLPTPAGRAALSKKMEGPNLSNVFKRTFYQMAYKFALSGHQRCAGTGFAIPQSVWKSWLRHLANPTLIDNGDGTFSLGDTRNDSENAWIFVFELDPDTDASPRPLAPHLEIRVNVDTLIDLALRESPRAALGPSGPVATFTDKVEARMLRFWPKTRRRRSTTPGGQRGLFDA | soluble |
| METEAIDGYITCDNELSPEREHSNMAIDLTSSTPNGQHASPSHMTSTNSVKLEMQSDEECDRKPLSREDEIRGHDEGSSLEEPLIESSEVADNRKVQELQGEGGIRLPNGERPFHCNQCGASFTQKGNLLRHIKLHSGEKPFKCPFCSYACRRRDALTGHLRTHSVGKPHKCNYCGRSYKQRSSLEEHKERCHNYLQNVSMEAAGQVMSHHVPPMEDCKEQEPIMDNNISLVPFERPAVIEKLTGNMGKRKSSTPQKFVGEKLMRFSYPDIHFDMNLTYEKEAELMQSHMMDQAINNAITYLGAEALHPLMQHPPSTIAEVAPVISSAYSQVYHPNRIERPISRETADSHENNMDGPISLIRPKSRPQEREASPSNSCLDSTDSESSHDDHQSYQGHPALNPKRKQSPAYMKEDVKALDTTKAPKGSLKDIYKVFNGEGEQIRAFKCEHCRVLFLDHVMYTIHMGCHGYRDPLECNICGYRSQDRYEFSSHIVRGEHTFH | soluble |
| MSLKGGYAVVDFKVPNERDNASTTKLEVNFPTDHPLASVMPQPVPGWKAEVTKAKPAKPLESHGKQITEVVTKVTWTADGKGVEPGYFQKFPVSIGALPEDADQLVFKAIQTYSNKEVVRWIEVPQEGQEEPETPAPVLKLSAAEDDAHGASEGHHHHHH | soluble |
| MTTIASFPILQLPEKSLKIAIQSLTLEELIKFSLISKSTKRAAESLNLQADPFCDLY | not soluble |
| MAEPKWPSSAKTLPFKFMKEARNPCTRAQKLCSTHRRAAAPPSFSVHLTQKSENSSSEESDHQFASPTSPRPSSSDSFGPSAAPSTSLSPPFLSPSYSMDYIIEAMTSSSSTSPVPPPVSASRPVAPVVARVEGLRAVPVGHRRQHSSPGHLQQFQQELHARHHHANITRLNKKRRNTDTGYDPEARPPKFKHRSPLDEETILVSKTFAIPKYRKGALPAAAAAVVRNEALMDSSDSSDSQSTVKSLDGWRTRTSRSIMTTPEAFSRVRHISITFGEQQHDIDTDHSNQHFGSPSSLHSSLPRAFSPPHKISKARRRQLAVTTSLSETSAFPIPSSLKARSRMSSMSSTQADDEHPISMQNMRNIALGILVPIKQRFFLMQHIPLIEAEMSRFESRVVTAALHPSTFLQNISKSWEELTETVCQLHNAPRLRHPYWLALNEKCHLDGRTLATEFCEQLAYLVRRYDRKEAGYFLSNLVTALLMHHMSWVASVASPPLHNADSKDQIDENSLFGMMSSGAPTVGYNALMAQYLEISGACGNMRSAKICVVGEDLEVLASVCSVLSFFIRCSAVQHVDNDKMWEVPTEQPFSPCDVSNSPSTSCAHQHQQQQQLKNGYQHPEETSSVAMMRRLRNNNQMDTSSTPSTSTAAALLDADVEMVVQTTTEITSTTTTTPRHHHLHHLHSVTIDRLDFPCCPTIADDADMWVPQRPNSEGLGRSMFAGPLNNYCSHFVLSAVQKTDTNMPEVYSRMFDEVRCTDFPCHRSATATPSQSTSSMCDPAMNPENVLIIADIEQLTVKVLSTEGSDEVTSPSESIVAMLEQFVGIHNAVPANAEFLVGIIEDSLAHIVGKSLTLVELVRSDQTVRIQGSERAKKSKILAKIEILLAVCPEIGNFSKFEFPSYRALK | not soluble |
| MSLVVEHNPFAKRYRKGMKRIALVYPNRYVGGITNLGLQYIYARINESDAICERFYADVFDGLRSIESATPLSEFDVALFSLQYETDYFKAVEILKRSGFKGLKIAGGPCVMENPQPLMDYFHAFFIGEVEGYVEELIHAKNAEELSGIPGVFTGREEKVKRVYAKLDRHIEKEIIGEGAYGRCFLLEIGRGCVRRCRFCIVRQIYFPPRWRKKEMLPEIGEEKVAIIAPSPSDHPQFKEILQHYVEQGKEVSPSSVRADTLDEELADLLKKAGVKTLTIAPETASDKLQEVINKGIGDEEVMRAAELASTRFEKVKLYYMVGLPGESFEDVKAILEQALRVKKLVGKVEISVNPLVPKPHTPLQWMGFGGEEELREGISHLKKKLEYLRREARRAGIGADVSGFKEFAIQTILSRGDREVAEMLEGASYRKFEKYLKPINPDSPLPWDFIDHGYRKSTLLKEYDKIKKILEGHHHHHH | not soluble |
| MLPFDPSTRYDRQVRLWGEEGQASIGSTSACVLGSDSLATEILKSLVLAGVQSFYVVDDAKVEQADIGQNFFLHADDIGRSRAEATLEKLTELNPSVSGSASSQPPTALAMEDVEKLTTFSVVVAANQNEEIDTTFAKVLYNIRVPFICIKTFGLIGTIRICIKEHTIANSHEENPRPDLRLDAPFSKLIEMINETNLDEMTLEQLRHTPYILLHFKALEVFRKQRNDPEAFPSTTAERKELQAILMSFRRSSEESGTKDSENFDEAKAAVIRAFQRTTIGSSVKSILSSPQCSTSTRPFWLICEALRRFVTENNNLLPLRGTLPDMTSDSSRYTRLATLFHEKALSDAQEVLRLTREVEKERGVGDVISDDVCYRFCKNADRIRVQYGDVLDYNEETKAIVEKIRESNIDEETRNQKVDEATWMLLMRAVGRFQKEKGRYPGTNGVPVSIDAQDLKKRVEVLIREALKDEQDFTSISNKVTDTAIAEICRFGAAELHVISSYVGGIAAQEIIKLATNQYVPIDNTFIFDGHTQESATFKF | not soluble |
| MSNSLEERLRANSSAFDGLLALIPAKYYYDEKSQEQWKAKKKTKEQSKNDKLKKLDPEQRDDETSSTLEVMKKKEKDAKPVVLPGEKFKHMKMQKQKEATSKVEGDSDLNVEVNDPMIIAPDEDEEEEEDIKVIFDDEGNEIPLESKKDTTEPDRSVEKKSITEEEKLQRKKNLEALRSKLQAKISDMKSKRKAPGSREAILAQRKRKEELKKRKRLESEQEQDQDEIASDSDMEDIDSDLENNSKKRFKKGKKDSEINADGVMFQNIIFDDGARATSDLQRLRKAGRTKGPAKNDVKSHLKLLEAKKNKMEAKDELEQIKQKEKEKWQKAMLQAEGIKIRDDEKLLRKAIKRKEAQKRKSAIEWSERKRVVEDTISERQKRREENLRIRKDNKGKKRNKQEKMKRKYVGSAVPKKRAGFEGRLKTGKKKGGPK | not soluble |
| MGSDKIHHHHHHMNRIAEEVGLQKASVYHHYAEKDTLLLALVDYVVEELRYRIVQPDDEDPRQQLRRFIDEVVFGHHAGPDATALSPPTDGTIRAFIQIRAQAVHDDDYREQITTIDRIQQEHIAEIIQRGVDAGEFRDVDPTQVASFISTLLTGVFTRRVTMTTDLTPVREATHAYLEAVLVA | not soluble |
| MNINLSVPYAAEGPGPTINTLGQVDGEDVVSISSADLDETEGNLNMTTVSVRSGMTLSQVISRWLFTDDTIVPIEQVFPPGQSTEEVEESNRTAFISSESSATIAAMNYLNIPVEVEVAEVLTDSAATGIFEPGDKLLSIDGTAISTPGDAQTIVRSKAPGDEITISYERNDAESQATITLREHPDDSSVALLGISMLSVPSSAIEVDYNLEDIGGPSAGMMFSLAVVDKLSPGALNGGKFVAGTGTIAEDGSVGPIGGIAHKVRAAEDAGAEVFLSPADNCAEAMSAKPQDMTILKVDSLSQAIDQMAAYNEGLEHHHHHH | soluble |
| MNKPENFEEAIEIKRDPEDFSVEEIADIEPDPNGKYTIIKARVRDWDTNRIAAEIARRLHMSRKRVTFAGTKDKRAVKLQYFCINSADVDVASLSGIKDFEVIESFKSSHYLTLGDLIANHFKIRFYGIDPEMFRERYVHIISKGGFPNFFGDQRFGSRRRNTHEIGKLIIKGEYEEAVKKYIYDEKYDKESYRKHFIDTLDYKTALERFPHSLSFERSLIGYYARNGTFKGAFDSLPKNLTIMFVHAYQSYLFNRILDERLKIYGLNAVLPGDIAFPVDAYFNPDKSKPIEVNSYNREKISKLVSSDKIRISLPIFGYKTWIDNSDFGDVEYGILKEEGISQDDFKNKDFAYLSSSGDRRIISAKPINFSLENNVVEFTLGKGIYATVFLSSIGRLKENVYSDSEAELLEHHHHHH | soluble |
| MGSDKIHHHHHHMISMKPRYKPDWESLREHTVPKWFDKAKFGIFIHWGIYSVPGWATPTGELGKVPMDAWFFQNPYAEWYENSLRIKESPTWEYHVKTYGENFEYEKFADLFTAEKWDPQEWADLFKKAGAKYVIPTTKHHDGFCLWGTKYTDFNSVKRGPKRDLVGDLAKAVREAGLRFGVYYSGGLDWRFTTEPIRYPEDLSYIRPNTYEYADYAYKQVMELVDLYLPDVLWNDMGWPEKGKEDLKYLFAYYYNKHPEGSVNDRWGVPHWDFKTAEYHVNYPGDLPGYKWEFTRGIGLSFGYNRNEGPEHMLSVEQLVYTLVDVVSKGGNLLLNVGPKGDGTIPDLQKERLLGLGEWLRKYGDAIYGTSVWERCCAKTEDGTEIRFTRKCNRIFVIFLGIPTGEKIVIEDLNLSAGTVRHFLTGERLSFKNVGKNLEITVPKKLLETDSITLVLEAVEE | not soluble |
| MALHVDYTAERAFARIIGGLRSARLDAGLSQNALAAGMPVRGRAISEWETRAVEPTLGHLIQWARELGRRLVIVGRDGELRVGPVRQRPGETFEIFERRRLAVPLRNRRLALGMAQGELGALVGVSRDSIQRWELVRVPPRPIAHVVWAQKLGCSLDILVVPDGARRVRRTGFAPAGLAGSTLERPGLRVQRLGL | not soluble |
